T1: hTK (UniProt P04183 1-234)
T1 sequence (looked up): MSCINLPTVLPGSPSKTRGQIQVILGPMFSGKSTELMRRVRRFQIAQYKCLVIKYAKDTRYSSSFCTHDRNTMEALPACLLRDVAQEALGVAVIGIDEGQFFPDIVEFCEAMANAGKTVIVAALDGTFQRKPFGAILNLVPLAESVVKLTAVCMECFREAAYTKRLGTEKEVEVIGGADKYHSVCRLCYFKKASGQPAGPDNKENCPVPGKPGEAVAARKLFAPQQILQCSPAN


What was measured:
[1] = target: T1, hTK; test: SPR sandwich matrix on hTK; row = primary antibody; secondary antibody (competitor): 4H4-IgG
[2] = target: T1, hTK; test: SPR sandwich matrix on hTK; row = primary antibody; secondary antibody (competitor): 6C6-IgG
[3] = target: T1, hTK; test: SPR sandwich matrix on hTK; row = primary antibody; secondary antibody (competitor): 23C11-IgG
[4] = target: T1, hTK; test: SPR sandwich matrix on hTK; row = primary antibody; secondary antibody (competitor): Antibody A

| Binder | Molar Ratio Epitope Accessibility (MREA) [1] | Molar Ratio Epitope Accessibility (MREA) [2] | Molar Ratio Epitope Accessibility (MREA) [3] | Molar Ratio Epitope Accessibility (MREA) [4] |
| --- | --- | --- | --- | --- |
| 23C11-IgG (antibody, V domains shown) VH: CQSLEESGGRLVTPGTPLTLTCTASGFSLSNYYMSWVRQAPGKGLEWIGIIYGDDNTYCANWTKGRFTISKTSTTVDLTITSPTTEDTATYFCARGPDYIAAKMDIWGPGTLVTVSL VL: DVVMTQTPASVEAAVGGTVTIKCQASQSISGYLSWYQQKPGQRPKLLIYRASTLESGVPSRFKGSGSGTEFTLTISDLECADAATYYCQCTYGSSTFSSYGNAFGGGTEVVVK | 0 | 0 | 0 | 0.2 |
| 6C6-IgG (antibody, V domains shown) VH: QEQLEESGGDLVKPEGSLTLTCTASRFSFSSSYWICWVRQAPGKGLEWIACIYAGDSGSSYYASWAKGRFTVSKTSSTTVTLQTTSLTAADTATYFCARASVGAAYDYFALWGPGTLVTVSS VL: ALVMTQTPASVEAAMGGTVTIKCQASEDVSSHLAWYQQRPGQPPKLLIYGASDLASGVPSRFTGSGSGTQFTLAISDLECADAATYYCQGYYYISDSPYVFGGGTEVVVK | 0 | 0 | 0 | 0.4 |
| 4H4-IgG (antibody, V domains shown) VH: CQSLEESGGGLVQPEGSLTLTCTASGFSFSSGYDMCWVRQTPGKGLEWIACISVDSDGVTYYASWAKGRFTISKTSSTTVTLQMTSLTAADTATYFCARGYESSSGVYIPYFTLWGPGTLVTVSS VL: DIVLTQTPASVEAAVGGTVTIKCQASQSIYSYLAWYQHKPGQPPKLLIYKASTLASGVPSRFKGSGSGTEYTLTISDLECADAATYYCQHYYYSSTSGGGVFGGGTEVVVK | 0 | 0 | 0 | 0.2 |
